Measured values reported in publication PMC5581047.

Molecular target: GST-ERα (179-312), C/D domains (UniProt P03372)
Assay: pull-down; GST-ERα domains or full length bound to glutathione-Sepharose 4B beads, incubated with recombinant Api5 protein; Western blot

B1: Recombinant Api5 protein (natural protein)
chain: MPTVEELYRNYGILADATEQVGQHKDAYQVILDGVKGGTKEKRLAAQFIPKFFKHFPELADSAINAQLDLCEDEDVSIRRQAIKELPQFATGENLPRVADILTQLLQTDDSAEFNLVNNALLSIFKMDAKGTLGGLFSQILQGEDIVRERAIKFLSTKLKTLPDEVLTKEVEELILTESKKVLEDVTGEEFVLFMKILSGLKSLQTVSGRQQLVELVAEQADLEQTFNPSDPDCVDRLLQCTRQAVPLFSKNVHSTRFVTYFCEQVLPNLGTLTTPVEGLDIQLEVLKLLAEMSSFCGDMEKLETNLRKLFDKLLEYMPLPPEEAENGENAGNEEPKLQFSYVECLLYSFHQLGRKLPDFLTAKLNAEKLKDFKIRLQYFARGLQVYIRQLRLALQGKTGEALKTEENKIKVVALKITNNINVLIKDLFHIPPSYKSTVTLSWKPVQKVEIGQKRASEDTTSGSPPKKSSAGPKRDARQIYNPPSGKYSSNLGNFNYEQRGAFRGSRGGRGWGTRGNRSRGRLY
percent of the binding of Api5 to full length GST-ERα (1-595): > 60%
